The series addresses mouse NF-YA minimal domain;mouse NF-YB HFD;mouse NF-YC HFD (mouse;mouse;mouse, UniProt P23708-2;P63139;P70353 233-303;49-141;27-120, ||). As to the kind of experiment: agarose EMSA; positive control; 32P EMSA: 20 mM Hepes pH 7.9, 50 mM NaCl, 5% glycerol, 5 mM MgCl2, 5 mM b-ME, 20 C; Cy5 agarose EMSA: 20 nM DNA, 20 mM Tris pH 7.5, 50 mM NaCl, 0.5 mM EDTA, 5 mM MgCl2, 2.5 mM DTT, 0.1 mg/ml BSA, 5% glycerol, 23 C. As to conditions: protein: recombinant;recombinant;recombinant; tags: C-terminal His cleaved by thrombin;6His in dimer; untagged in purified trimer;; copies: 1;1;1; label: 5'-Cy5; blunt. A general note: In EMSA bound probe runs differently from free probe, usually more slowly.

Sequence of mouse NF-YA minimal domain;mouse NF-YB HFD;mouse NF-YC HFD (P23708 261-331, chain 1 of 3): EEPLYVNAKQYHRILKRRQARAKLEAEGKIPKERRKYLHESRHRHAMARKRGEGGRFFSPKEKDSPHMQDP
Sequence of mouse NF-YA minimal domain;mouse NF-YB HFD;mouse NF-YC HFD (P63139 49-141, chain 2 of 3): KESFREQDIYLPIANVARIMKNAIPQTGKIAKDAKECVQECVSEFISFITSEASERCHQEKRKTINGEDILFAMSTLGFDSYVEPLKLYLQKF
Sequence of mouse NF-YA minimal domain;mouse NF-YB HFD;mouse NF-YC HFD (P70353 27-120, chain 3 of 3): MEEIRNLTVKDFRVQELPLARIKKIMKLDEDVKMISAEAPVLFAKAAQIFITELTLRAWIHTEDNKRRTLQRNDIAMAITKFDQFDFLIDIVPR

B1: HSP70 CCAAT 31 bp probe (dsDNA)
DNA 1: CTTCTGAGCCAATCACCGAGCTCGATGAGGC
DNA 2: GCCTCATCGAGCTCGGTGATTGGCTCAGAAG
As for B1, the binding result was “binds”.

Values taken from paper PMC3422339, “Interactions and CCAAT-Binding of Arabidopsis thaliana NF-Y Subunits”.
